Measurements reported in CN115536746A (NANJING SANHOME PHARMACEUTICAL CO LTD, dated 2022).

T1: 人源CRTAM蛋白全长 on CHO-K1-hCRTAM cells (human, UniProt O95727 18-393)
T1 construct: also called 细胞表面hCRTAM
T1 sequence: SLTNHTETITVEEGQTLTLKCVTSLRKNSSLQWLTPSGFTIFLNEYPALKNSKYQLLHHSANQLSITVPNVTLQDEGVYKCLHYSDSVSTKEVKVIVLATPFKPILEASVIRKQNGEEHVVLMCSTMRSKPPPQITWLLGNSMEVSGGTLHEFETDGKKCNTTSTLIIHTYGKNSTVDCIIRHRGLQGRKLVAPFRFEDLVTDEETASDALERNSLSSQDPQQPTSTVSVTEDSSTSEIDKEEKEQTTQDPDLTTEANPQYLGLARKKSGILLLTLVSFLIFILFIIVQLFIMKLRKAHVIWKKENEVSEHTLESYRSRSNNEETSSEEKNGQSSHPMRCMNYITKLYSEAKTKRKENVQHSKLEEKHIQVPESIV

T2: 猴源CRTAM蛋白全长 on CHO-K1-cCRTAM cells (猴源 (食蟹猴, cynomolgus monkey), UniProt O95727 18-393 (human entry))
T2 construct: also called 细胞表面食蟹猴CRTAM
T2 chain: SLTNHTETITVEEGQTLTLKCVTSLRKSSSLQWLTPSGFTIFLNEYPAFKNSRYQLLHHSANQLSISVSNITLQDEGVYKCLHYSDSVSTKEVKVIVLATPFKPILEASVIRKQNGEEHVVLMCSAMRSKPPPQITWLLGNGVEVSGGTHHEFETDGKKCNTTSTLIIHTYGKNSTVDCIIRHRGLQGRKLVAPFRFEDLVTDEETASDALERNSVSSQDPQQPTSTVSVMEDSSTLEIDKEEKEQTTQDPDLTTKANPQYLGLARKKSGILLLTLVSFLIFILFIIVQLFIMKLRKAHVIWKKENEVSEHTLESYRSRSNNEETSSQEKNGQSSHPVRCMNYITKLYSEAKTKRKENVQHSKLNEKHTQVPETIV


How the values were obtained:
[1] = target: T1, 人源CRTAM蛋白全长 on CHO-K1-hCRTAM cells; assay: flow cytometry on CHO-K1-hCRTAM cells
[2] = target: T2, 猴源CRTAM蛋白全长 on CHO-K1-cCRTAM cells; assay: flow cytometry on CHO-K1-cCRTAM cells

Binder | EC50 [1] | EC50 [2]
HuC110-34 (antibody, V domains shown, also called HuC110-34-biotin; 抗CRTAM人源化抗体HuC110-34) VH: QVQLVQSGAEVKKPGASVKVSCKASGYTFTNNDINWVKQAPGQRLEWIGWIYPRDGSTQYNEKFRGRATITVDTSASTAYMELSSLRSEDTAVYFCARGLVDYWGQGTLVTVSS VL: DVVMTQSPDSLAVSLGERATINCRSSQSLVHSNKNTYLHWYLQKPGQPPKLLIYKVSNRFSGVPDRFSGSGSGTDFTLTISSLQAEDVAVYYCSQSTRVPWTFGGGTKLEIK | 0.0417 µg/mL | 0.0507 µg/mL
HuC94-31 (antibody, V domains shown, also called HuC94-31-biotin; 抗CRTAM人源化抗体HuC94-31) VH: EVQLLESGGGLVQPGGSLRLSCAASGFTFSTSAMSWVRQAPGKGLEWVATISSGGDYTYYSDNVKGRFTISRDNSKSTLYLQMNSLRAEDTAVYYCTLGYDEADYWGQGSLLTVSS VL: DIQMTQSPSSLSASVGDRVTITCRASQDISNYLNWYQQKPGKAPKLLIYYTSRLHSGVPSRFSGSGSGTDYTFTISSLQPEDIATYYCQQGDTFPWTFGGGTKLEIK | – | 0.035 µg/mL
人源化抗体5A11 (WO2019/086878) (antibody, human IgG1, lambda, V domains shown, also called 阳性对照抗体; 对照抗体) VH: EVQLVESGGGLVQPGGSLKLSCAASGFTFSDAAMYWVRQASGKGLEWVARIRTKTNNYAAHYVESVKGRFTVSRDDSKNTVYLQMNSLKTEDTAMYYCTSVPQGTQDYWGQGTLVTVSS VL: SYELTQPSSVSVSPGQTARITCSGDVLSKRYAQWSQQKPGQAIVSVIYKDSERPSGIPERFSGSSSGTTATLTISGAQVEDEADYYCLSTYADDNLPVFGGGTKLTVLG | 0.0607 µg/mL | –
HuC124-42 (antibody, V domains shown, also called HuC124-42-biotin; 抗CRTAM人源化抗体HuC124-42) VH: QVQLVQSGAEVKKPGSSVKVSCKASGYSFSNYWIEWVRQAPGQGLEWIGEILPGVPTIYYNAKFKDRVTFTADKSTSTAYMELSSLRSEDTAVYYCSRDPWFAYWGQGTLVTVSA VL: EIVLTQSPATLSVSPGERATFSCRASQSIGTSLHWFQQKPGQAPRLLIKYASQSISGIPARFSGSGSGTEFTLTISSVQSEDFAVYYCQQSNNWPFTFGGGTKLEIK | – | 0.0904 µg/mL
